Here are results for five molecules from US20230416365A1 (Hoffmann-La Roche, published 2023).

One may read the Kd as the equilibrium constant for the complex coming apart. One may read the koff as the first-order rate constant of dissociation. A high value points to fast dissociation. As usually defined, the kon is the rate constant with which the complex forms.

In test [1] the target is T1, biotinylated huCD28-Fc (dimeric CD28-Fc construct with a monovalent biotinylated avi-tag) (human, UniProt P10747 19-152, biotinylated at the C-terminal avi tag).
T1 construct: not shown: hum IgG1 Fc fragment with hole and PG-LALA mutations; hum IgG1 Fc fragment with knob and PG-LALA mutations
Briefly: SPR, ProteOn XPR36, huCD28-Fc on NLC chip, bispecific as analyte. On the technique in general: SPR reads the build-up and loss of mass on a sensor chip optically.

In test [2] the target is T2, human CD28 on CHO cells (parental cell line CHO-k1 ATCC #CCL-61, modified to stably overexpress human CD28) (human, UniProt P10747 19-220).
T2 construct: also called hu CD28; CHO-hCD28
Briefly: binding to CHO cells expressing human CD28 (by the table's title).

For test [3], the target named is human FAP on 3T3-huFAP cells (clone 19) (human, UniProt Q12884 1-760). The test can be described thus: flow cytometry on 3T3-huFAP cells, FAP-CD28 1+1 constructs, MFI (PE). A general note: A flow cytometer gives signals particle by particle.

B1: FAP (4B9) - CD28 (CD28(SA)_Variant 16) 1+1 (bispecific antibody, human IgG1, kappa, L234A L235A)
heavy 1: EIVLTQSPGTLSLSPGERATLSCRASQSVTSSYLAWYQQKPGQAPRLLINVGSRRATGIPDRFSGSGSGTDFTLTISRLEPEDFAVYYCQQGIMLPPTFGQGTKVEIKSSASTKGPSVFPLAPSSKSTSGGTAALGCLVKDYFPEPVTVSWNSGALTSGVHTFPAVLQSSGLYSLSSVVTVPSSSLGTQTYICNVNHKPSNTKVDKKVEPKSCDKTHTCPPCPAPEAAGGPSVFLFPPKPKDTLMISRTPEVTCVVVDVSHEDPEVKFNWYVDGVEVHNAKTKPREEQYNSTYRVVSVLTVLHQDWLNGKEYKCKVSNKALGAPIEKTISKAKGQPREPQVCTLPPSRDELTKNQVSLSCAVKGFYPSDIAVEWESNGQPENNYKTTPPVLDSDGSFFLVSKLTVDKSRWQQGNVFSCSVMHEALHNHYTQKSLSLSP
light 1: EVQLLESGGGLVQPGGSLRLSCAASGFTFSSYAMSWVRQAPGKGLEWVSAIIGSGASTYYADSVKGRFTISRDNSKNTLYLQMNSLRAEDTAVYYCAKGWFGGFNYWGQGTLVTVSSASVAAPSVFIFPPSDEQLKSGTASVVCLLNNFYPREAKVQWKVDNALQSGNSQESVTEQDSKDSTYSLSSTLTLSKADYEKHKVYACEVTHQGLSSPVTKSFNRGEC
heavy 2: not shown
light 2: not shown
notes: huIgG1 PG-LALA CrossFab 1+1; also called P1AE3135
In test [1], B1 had a Kd of 5.3 nM, a koff of 0.000994 s⁻¹ and a kon of 187000 M⁻¹ s⁻¹. The Kd in test [2] is 5.3 nM. In test [3], the binding result is given as “binds”.

B2: FAP (4B9)-CD28 (CD28(SA)_Variant 8) 1+1 (bispecific antibody, human IgG1, kappa, L234A L235A)
heavy 1: EIVLTQSPGTLSLSPGERATLSCRASQSVTSSYLAWYQQKPGQAPRLLINVGSRRATGIPDRFSGSGSGTDFTLTISRLEPEDFAVYYCQQGIMLPPTFGQGTKVEIKSSASTKGPSVFPLAPSSKSTSGGTAALGCLVKDYFPEPVTVSWNSGALTSGVHTFPAVLQSSGLYSLSSVVTVPSSSLGTQTYICNVNHKPSNTKVDKKVEPKSCDKTHTCPPCPAPEAAGGPSVFLFPPKPKDTLMISRTPEVTCVVVDVSHEDPEVKFNWYVDGVEVHNAKTKPREEQYNSTYRVVSVLTVLHQDWLNGKEYKCKVSNKALGAPIEKTISKAKGQPREPQVCTLPPSRDELTKNQVSLSCAVKGFYPSDIAVEWESNGQPENNYKTTPPVLDSDGSFFLVSKLTVDKSRWQQGNVFSCSVMHEALHNHYTQKSLSLSP
light 1: EVQLLESGGGLVQPGGSLRLSCAASGFTFSSYAMSWVRQAPGKGLEWVSAIIGSGASTYYADSVKGRFTISRDNSKNTLYLQMNSLRAEDTAVYYCAKGWFGGFNYWGQGTLVTVSSASVAAPSVFIFPPSDEQLKSGTASVVCLLNNFYPREAKVQWKVDNALQSGNSQESVTEQDSKDSTYSLSSTLTLSKADYEKHKVYACEVTHQGLSSPVTKSFNRGEC
heavy 2: not shown
light 2: not shown
notes: huIgG1 PG-LALA CrossFab 1+1; also called P1AE3131
Regarding B2, in test [1], binding was put at a Kd of 23.8 nM, the off-rate (koff) is 0.00521 s⁻¹ and the kon stood at 219000 M⁻¹ s⁻¹. The Kd in test [2] came out at 23.8 nM. For the same molecule, in test [3], the binding result is “binds”.

B3: FAP (4B9) - CD28 (CD28(SA)_Variant 17) 1+1 (bispecific antibody, human IgG1, kappa, L234A L235A)
heavy 1: EIVLTQSPGTLSLSPGERATLSCRASQSVTSSYLAWYQQKPGQAPRLLINVGSRRATGIPDRFSGSGSGTDFTLTISRLEPEDFAVYYCQQGIMLPPTFGQGTKVEIKSSASTKGPSVFPLAPSSKSTSGGTAALGCLVKDYFPEPVTVSWNSGALTSGVHTFPAVLQSSGLYSLSSVVTVPSSSLGTQTYICNVNHKPSNTKVDKKVEPKSCDKTHTCPPCPAPEAAGGPSVFLFPPKPKDTLMISRTPEVTCVVVDVSHEDPEVKFNWYVDGVEVHNAKTKPREEQYNSTYRVVSVLTVLHQDWLNGKEYKCKVSNKALGAPIEKTISKAKGQPREPQVCTLPPSRDELTKNQVSLSCAVKGFYPSDIAVEWESNGQPENNYKTTPPVLDSDGSFFLVSKLTVDKSRWQQGNVFSCSVMHEALHNHYTQKSLSLSP
light 1: EVQLLESGGGLVQPGGSLRLSCAASGFTFSSYAMSWVRQAPGKGLEWVSAIIGSGASTYYADSVKGRFTISRDNSKNTLYLQMNSLRAEDTAVYYCAKGWFGGFNYWGQGTLVTVSSASVAAPSVFIFPPSDEQLKSGTASVVCLLNNFYPREAKVQWKVDNALQSGNSQESVTEQDSKDSTYSLSSTLTLSKADYEKHKVYACEVTHQGLSSPVTKSFNRGEC
heavy 2: not shown
light 2: not shown
notes: huIgG1 PG-LALA CrossFab 1+1; also called P1AE3136
As for B3, in test [1], the Kd was determined as 3.7 nM, the koff was 0.00125 s⁻¹ and the kon came to 338000 M⁻¹ s⁻¹. In addition, the Kd in test [2] worked out at 3.7 nM. Also, the binding result in test [3] is reported as “binds”.

B4: FAP (4B9) - CD28 (CD28(SA)_Variant 15) 1+1 (bispecific antibody, human IgG1, kappa, L234A L235A)
heavy 1: EIVLTQSPGTLSLSPGERATLSCRASQSVTSSYLAWYQQKPGQAPRLLINVGSRRATGIPDRFSGSGSGTDFTLTISRLEPEDFAVYYCQQGIMLPPTFGQGTKVEIKSSASTKGPSVFPLAPSSKSTSGGTAALGCLVKDYFPEPVTVSWNSGALTSGVHTFPAVLQSSGLYSLSSVVTVPSSSLGTQTYICNVNHKPSNTKVDKKVEPKSCDKTHTCPPCPAPEAAGGPSVFLFPPKPKDTLMISRTPEVTCVVVDVSHEDPEVKFNWYVDGVEVHNAKTKPREEQYNSTYRVVSVLTVLHQDWLNGKEYKCKVSNKALGAPIEKTISKAKGQPREPQVCTLPPSRDELTKNQVSLSCAVKGFYPSDIAVEWESNGQPENNYKTTPPVLDSDGSFFLVSKLTVDKSRWQQGNVFSCSVMHEALHNHYTQKSLSLSP
light 1: EVQLLESGGGLVQPGGSLRLSCAASGFTFSSYAMSWVRQAPGKGLEWVSAIIGSGASTYYADSVKGRFTISRDNSKNTLYLQMNSLRAEDTAVYYCAKGWFGGFNYWGQGTLVTVSSASVAAPSVFIFPPSDEQLKSGTASVVCLLNNFYPREAKVQWKVDNALQSGNSQESVTEQDSKDSTYSLSSTLTLSKADYEKHKVYACEVTHQGLSSPVTKSFNRGEC
heavy 2: not shown
light 2: not shown
notes: huIgG1 PG-LALA CrossFab 1+1; also called P1AE3134
Regarding B4, in test [1], the Kd came to 7.1 nM, the koff turned out to be 0.00184 s⁻¹ and the kon was 259000 M⁻¹ s⁻¹. Further, the Kd in test [2] was found to be 7.1 nM. In addition, in test [3], the binding result is recorded as “binds”.

B5: FAP (4B9) - CD28 (CD28(SA)_Variant 11) 1+1 (bispecific antibody, human IgG1, kappa, L234A L235A)
heavy 1: EIVLTQSPGTLSLSPGERATLSCRASQSVTSSYLAWYQQKPGQAPRLLINVGSRRATGIPDRFSGSGSGTDFTLTISRLEPEDFAVYYCQQGIMLPPTFGQGTKVEIKSSASTKGPSVFPLAPSSKSTSGGTAALGCLVKDYFPEPVTVSWNSGALTSGVHTFPAVLQSSGLYSLSSVVTVPSSSLGTQTYICNVNHKPSNTKVDKKVEPKSCDKTHTCPPCPAPEAAGGPSVFLFPPKPKDTLMISRTPEVTCVVVDVSHEDPEVKFNWYVDGVEVHNAKTKPREEQYNSTYRVVSVLTVLHQDWLNGKEYKCKVSNKALGAPIEKTISKAKGQPREPQVCTLPPSRDELTKNQVSLSCAVKGFYPSDIAVEWESNGQPENNYKTTPPVLDSDGSFFLVSKLTVDKSRWQQGNVFSCSVMHEALHNHYTQKSLSLSP
light 1: EVQLLESGGGLVQPGGSLRLSCAASGFTFSSYAMSWVRQAPGKGLEWVSAIIGSGASTYYADSVKGRFTISRDNSKNTLYLQMNSLRAEDTAVYYCAKGWFGGFNYWGQGTLVTVSSASVAAPSVFIFPPSDEQLKSGTASVVCLLNNFYPREAKVQWKVDNALQSGNSQESVTEQDSKDSTYSLSSTLTLSKADYEKHKVYACEVTHQGLSSPVTKSFNRGEC
heavy 2: not shown
light 2: not shown
notes: huIgG1 PG-LALA CrossFab 1+1; also called P1AE3132
In test [1], B5 gave a Kd of 12.5 nM, a dissociation rate constant (koff) of 0.00287 s⁻¹ and a kon of 230000 M⁻¹ s⁻¹. Further, the Kd in test [2] amounted to 12.5 nM. In addition, the binding result in test [3] is “binds”.
